# Patent publication US20240325562A1, “INTERNALIZING BINDING MOLECULES” (LinXis B.V., priority 2020, published 2024)
# T1: murine PDGFRB ectodomain (mPDGFRB-ECD) (Mus musculus, UniProt P05622)
# T1 construct: varied across murine PDGFRB ectodomain (mPDGFRB-ECD), rPDGFRB-ECD and hPDGFRB-ECD
# T1 sequence (P05622 32-531 limits assumed): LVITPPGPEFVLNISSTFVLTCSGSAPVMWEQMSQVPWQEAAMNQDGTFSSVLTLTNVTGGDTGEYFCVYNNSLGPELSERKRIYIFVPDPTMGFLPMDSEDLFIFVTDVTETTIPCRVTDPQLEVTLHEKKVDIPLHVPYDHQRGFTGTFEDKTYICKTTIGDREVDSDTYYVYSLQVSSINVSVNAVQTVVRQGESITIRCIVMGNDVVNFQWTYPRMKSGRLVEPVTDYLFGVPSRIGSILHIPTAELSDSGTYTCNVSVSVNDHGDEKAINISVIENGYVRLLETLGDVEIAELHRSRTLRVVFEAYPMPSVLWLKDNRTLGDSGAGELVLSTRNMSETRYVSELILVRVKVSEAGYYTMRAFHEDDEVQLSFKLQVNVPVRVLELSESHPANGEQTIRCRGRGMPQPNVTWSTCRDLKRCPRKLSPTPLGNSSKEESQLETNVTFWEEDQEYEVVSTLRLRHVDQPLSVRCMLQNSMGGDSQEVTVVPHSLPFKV
# T2: rPDGFRB-ECD (Rattus norvegicus, UniProt Q05030)
# T2 sequence (Q05030 32-531 limits assumed): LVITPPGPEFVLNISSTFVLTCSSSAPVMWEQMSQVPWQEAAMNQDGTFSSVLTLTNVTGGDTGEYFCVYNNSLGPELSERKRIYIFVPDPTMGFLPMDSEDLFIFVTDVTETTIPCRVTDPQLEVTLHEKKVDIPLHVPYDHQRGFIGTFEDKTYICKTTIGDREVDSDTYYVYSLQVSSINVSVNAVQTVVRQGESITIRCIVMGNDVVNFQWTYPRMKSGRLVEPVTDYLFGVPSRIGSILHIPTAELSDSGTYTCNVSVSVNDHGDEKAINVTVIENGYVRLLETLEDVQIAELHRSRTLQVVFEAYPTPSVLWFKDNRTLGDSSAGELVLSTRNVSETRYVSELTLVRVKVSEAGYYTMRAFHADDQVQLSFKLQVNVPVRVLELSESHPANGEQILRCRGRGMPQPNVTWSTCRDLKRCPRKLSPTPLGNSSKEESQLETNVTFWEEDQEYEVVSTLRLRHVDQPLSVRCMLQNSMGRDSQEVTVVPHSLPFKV
# Tests used:
# [1] = target: T1, murine PDGFRB ectodomain (mPDGFRB-ECD); assay: Binding assay on murine PDGFRB ectodomain; settings: IRDye800-conjugated, FIG. 15D
# rPDGFRB-ECD = target: T2, rPDGFRB-ECD; assay: Binding assay on rPDGFRB-ECD; settings: IRDye800-conjugated, FIG. 15D
# Protocol: (§1) The 18 unique hPDGFRB binders from libraries 1 and 2, and the 11 unique rPDGFRB binders from libraries 3 and 4 (Example 2.2, FIGS. 5 and 6) were produced and purified as described in examples 3 and 4. Then, the apparent affinities were determined with binding assays on hPDGFRB-ECD and rPDGFRB-ECD, respectively, the setup described in example 5.1. Results are summarized in FIGS. 5 and 6 for the hPDGFRB and rPDGFRB VHHs, respectively.
# As Shown in FIG. 15C), the binding affinity of this construct for both hPDGFRB and rPDGFRB are below 5 nM. […] These observations make SP02P (or similar VHH) and SP26P (or similar VHH) particularly promising for use in the present invention.
# SCC-hPDGFRB cells = assay: Kinetic internalization assay on SCC-hPDGFRB cells; format: cell-based, human
# Protocol: (§2) The rate of internalization (endocytic rate constant, ke) of biparatopic constructs 13F11-13E8 and 13E8-13F11 was determined with a kinetic internalization assay on SCC-hIGF2R and SCC-rIGF2R cells. Briefly, 10 nM of IRD800CW conjugated 13F11-13E8 or 13E8-13F11 (conjugation method as described in example 10.2) was added to hIGF2R expressing SCC cells or rIGF2R expressing SCC cells and incubated at 37° C. for different time points up to 12 minutes. Internalization was then purposely halted by putting the cells on ice. Subsequently, cells were washed with cold PBS and the non-internalized VHH construct (bound fraction) was separated from the internalized construct (internalized fraction) using an acid-wash, as described above, after which the fluorescence of both fractions were measured. Both constructs internalize with similar endocytic rate constants in SCC-hIGF2R cells (ke around 1.5 min-1) and in SCC-rIGF2R cells (ke around 0.7 min-1) (FIGS. 17A and B, respectively).
# To determine the rate of internalization of the VHH construct SP02P-SP26P, kinetic internalization assays on hPDGFRB expressing SCC cells and LX-2 cells were performed using a similar method as described for the IGF2R constructs in example 11.1. […]
# SCC-rPGDFRB cells = assay: Kinetic internalization assay on SCC-rPGDFRB cells; format: cell-based; settings: IRDye800 conjugates, cells expressing rat PDGFRB
# Protocol: as §2
# To confirm improved internalization of biparatopic VHH constructs compared to the monomeric individual VHH components, kinetic internalization assays were performed using SCC-rPGDFRB and on SCC-hPDGFRB cells, using a similar method as described for the IGF2R constructs in example 11.1. […]
# hPDGFRB-ECD = hPDGFRB-ECD (Homo sapiens, UniProt P09619); assay: Binding assay on hPDGFRB-ECD; settings: IRDye800-conjugated, FIG. 15D
# Chain of hPDGFRB-ECD (P09619 33-532 limits assumed): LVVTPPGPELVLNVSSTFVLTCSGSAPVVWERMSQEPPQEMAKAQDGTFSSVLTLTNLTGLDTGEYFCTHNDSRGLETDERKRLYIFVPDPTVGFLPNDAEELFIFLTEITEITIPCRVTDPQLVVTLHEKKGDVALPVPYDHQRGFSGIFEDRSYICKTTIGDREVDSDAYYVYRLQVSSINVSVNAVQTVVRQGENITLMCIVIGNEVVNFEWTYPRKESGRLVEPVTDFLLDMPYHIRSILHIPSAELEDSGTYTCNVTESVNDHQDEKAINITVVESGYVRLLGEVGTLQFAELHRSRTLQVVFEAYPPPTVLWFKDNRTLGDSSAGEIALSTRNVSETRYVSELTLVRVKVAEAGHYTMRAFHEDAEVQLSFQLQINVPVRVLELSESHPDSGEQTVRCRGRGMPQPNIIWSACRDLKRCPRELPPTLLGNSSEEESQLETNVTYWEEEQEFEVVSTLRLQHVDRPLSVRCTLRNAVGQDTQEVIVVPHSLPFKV
# Protocol: The 15 unique hIGF2R-binding VHH (Example 2.1, FIG. 2) were produced and purified as described in examples 3 and 4. The apparent affinities were determined through binding assay on immobilized hIGF2R-ECD. Briefly, three-fold serial dilution series, starting from 1 μM, of each VHH were plated onto hIGF2R-ECD coated plates. VHH were allowed to bind for two hours after which plates were washed. Then, bound VHH was detected using a VHH-specific IgG antibody, followed by an IRD800CW-conjugated IgG-specific antibody. Plates were read out by fluorimetry.
# as §1
# Based on their high affinity and binding to non-overlapping hPDGRB epitopes, various biparatopic constructs were prepared based on VHHs SP02P, SP12P SP14P, SP26P and SP28P. The constructs were produced as described in example 7.1. and subjected to binding assay.
# As Shown in FIG. 15C), the binding affinity of this construct for both hPDGFRB and rPDGFRB are below 5 nM. […]
# LX-2 cells = assay: Kinetic internalization assay on LX-2 cells; format: cell-based, human; settings: FIG. 19 right panel
# Protocol: as §2
# To determine the rate of internalization of the VHH construct SP02P-SP26P, kinetic internalization assays on hPDGFRB expressing SCC cells and LX-2 cells were performed using a similar method as described for the IGF2R constructs in example 11.1.
molecule,measurement,setting,value
"SP02P-SP26P: biparatopic PDGFRB VHH construct combining SP02P and SP26P (protein, left off: small tags and cut ends) EVQLVESGGGLVQAGGSLRLSCAASESISSIEQMGWFRQAPGKQRALVAINTYGGRTVYTNSVEGRFTMSRDSAKNMVYLQMTSLEPEDTAVYYCYAQTTAWRGGVWGQGTQVTVSSGGGGSGGGGSGGGGSEVQLVESGGGLVQAGGSLRLSCAASGRSFSSSVMGWFRQTPGKEREFVAATRWTAASTHYADSVKGRFTISRDHAENAVFLQMNSLKPEDTAVYYCAAGNYLDTAQYRYNYWGQGTQVTVSS",affinity for mPDGFRB-ECD,[1],high affinity
same,affinity for rPDGFRB-ECD,rPDGFRB-ECD,high affinity
same,internalization,SCC-hPDGFRB cells; FIG. 19 left panel,observed
same,internalization rate compared to monomeric VHH SP02 and SP26,"SCC-hPDGFRB cells; IRDye800 conjugates, cells expressing human PDGFRB",5-10 fold
same,internalization rate compared to monomeric VHH SP02 and SP26,SCC-rPGDFRB cells,5-10 fold
same,affinity for hPDGFRB-ECD,hPDGFRB-ECD,high affinity
same,internalization,LX-2 cells,observed
